Here are results for 13 molecules from patent US9885050B2, “Molecular affinity clamp technology and uses thereof” (The University of Chicago, priority 2007, dated 2018).

Where two headings read alike, the source gives them in different places. Bounds are passed on as bounds.

In general, IC50 refers to the concentration needed to halve the response being measured.

One experiment concerns the target Pin1 WW domain (Homo sapiens, UniProt Q13526). Particulars: For eWW (Pin1 WW); read-out: Affinity if known; cited from earlier work.
The next experiment deals with T1, Grb2-SH2 domain (Homo sapiens, UniProt P62993).
T1 construct: The SH2 domain of Grb2 (“Grb2-SH2” hereafter) is ˜98 residue autonomously folded domain
T1 sequence (P62993 60-152 limits assumed): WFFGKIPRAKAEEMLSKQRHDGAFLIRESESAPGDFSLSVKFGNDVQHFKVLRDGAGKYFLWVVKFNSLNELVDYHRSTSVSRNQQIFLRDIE
Conditions: For eSH2 (Grb2); read-out: Affinity if known; cited from earlier work.

Experiment [1] concerns the target T2, Ala-substituted ARVCF peptide (positions −7 to −4) (Homo sapiens, UniProt O00192, V958A).
T2 construct: The tested positions are −7 to −4 in the ARVCF peptide (PQPVDSWV-COOH; mutated positions are underlined); yeast SUMO (N)
Put plainly: Alanine-scanning of the ARVCF peptide by SPR. The experiment is classed as binding. Conditions: ARVCF peptide mutant. The protocol:
To complement the library sorting experiments described above, Ala-scanning experiments of the ARVCF peptide were performed. When the goal is to define differences in the ability of ePDZ-a and ePDZ-b1 to recognize the differences between the ARVCF and δ-catenin peptides, only those positions that differ between the two peptides are analyzed.
Consistent with the peptide library sorting results, the ePDZ-b family was sensitive to Ala substitution mutations at all positions between −4 and −7. […] The results are shown in terms of changes in free energy change (ΔG=−RT ln(Kd^mutant/Kd^wild type)). […] The tested positions are −7 to −4 in the ARVCF peptide (PQPVDSWV-COOH; mutated positions are underlined). For each mutant, binding affinity was determined using surface plasmon resonance as described previously for the wild-type ARVCF peptide (69).

The target of experiment [2] is T3, δ-catenin peptide (PASPDSWV-COOH) (Homo sapiens, UniProt Q9UQB3).
T3 construct: yeast SUMO (N); made in house
Put plainly: Surface plasmon resonance (SPR, BIAcore) analysis of motif binding, δ-catenin peptide. Particulars: for Kd: SPR; for Specificity Index: ratio of Kd for δ-catenin to Kd for ARVCF. An excerpt:
(§1) Using semi-automated methods, the phage display library was sorted using an eight-residue motif (SEQ ID NO: 148) corresponding to the ARVCF C-terminus. […] The maximal motif/affinity concentrations are indicated. In B, C and F, the on and off rates are also shown on the left and right sides, respectively. […] After four rounds of sorting, two clones with high affinity were identified to the ARVCF peptide motif. ePDZ-a (SEQ ID NO: 149) and ePDZ-b (SEQ ID NO: 150) are thus (referred to as “enhanced PDZ-a” and “enhanced PDZ-b” or simply “ePDZ-a” and “ePDZ-b” respectively) potential affinity clamp candidates.
The binding specificity of the ePDZ clones was investigated. In addition to the ARVCF motif, wild-type erbin PDZ also binds to the C-terminus of δ-catenin with a low μM Kd. The two sequences differ only at positions outside the core recognition motif, DSWV (SEQ ID NO: 69) —COOH (Table 2). The affinity enhancement of ePDZ-a was similar for both targets. Remarkably, the ePDZ-b clone had very weak binding to δ-catenin, similar to the wild-type PDZ domain, showing that ePDZ-b discriminates between the two targets by ˜200 fold. Equally importantly, ePDZ-b discriminates amino acids outside the DSWV-COOH motif shared by the two peptides (Table 2), and thus, it expanded the size of the target motif. The improved specificity is consistent with the molecular affinity clamp design where the enhancer domain binds to the motif surface presented on the PDZ domain and thus can “read” the motif sequence (FIG. C2).
A general note: In SPR one partner is held on a chip, and binding of the other changes the refractive index at the surface.

Experiment [3] has as its target T4, ARVCF peptide (PQPVDSWV-COOH) (Homo sapiens, UniProt O00192).
T4 construct: made in house; host or cells: E. coli
Put plainly: Surface plasmon resonance (SPR, BIAcore) analysis of motif binding, ARVCF peptide. Conditions: for koff / kon: for the ARVCF peptide; for Affinity Enhancement: ratio of Kd of parent protein (cpPDZFN) for ARVCF to that of the affinity clamp.
Excerpt: as §1
These two clones were characterized as soluble proteins.
One method to improve affinity of the affinity clamp is to improve the interaction interface of the enhancer domain (e.g. the FN3 domain). […] The two second-generation variants, ePDZ-b1 (SEQ ID NO: 151) and ePDZ-b2 (SEQ ID NO: 143), were prepared as protein samples and their binding properties were analyzed using SPR. […] The affinity enhancement primarily originated from reduced dissociation rates.
A disulfide-constrained peptide was used as an enhancer domain. A peptide-PDZ affinity clamp was designed in which the diversified peptide segment was N-terminal connected to the circularly permutated PDZ domain (cpPDZ) described above. (See, FIG. F1 showing an affinity clamp constructed with Cys-constrained peptide as an enhancer domain in which (A) is a schematic drawing of the affinity clamp. Note that the peptide is attached to the N-terminus of the interaction domain. (B, C) are saturation curves of the parent PDZ (B) and peptide-PDZ Affinity Clamp (C) determined using surface plasmon resonance (SPR). SPR experiments were performed in the equilibrium mode, and the SPR response is plotted as a function of the concentration of the target peptide. The target peptide fused to the yeast SUMO protein was used in these measurements. The curves show the best fit of the 1:1 binding model to the data. The Kd values are also shown.)

The test system of experiment [4] is ARVCF target peptide (SUMO fusion) in E. coli lysate. Kind of experiment: Pull-down (immunoprecipitation) with biotinylated ePDZ's and streptavidin magnetic beads. The experiment is classed as binding. Particulars: biotinylated clamp, streptavidin magnetic beads, E. coli lysate/cell extracts. The source says:
(§2) The PDZ-FN3 affinity clamps functioned well in Western blotting and in immunoprecipitation (pull down) assays. […] Lane 6 is a negative control for the secondary, anti-FLAG antibody. In FIG. C6B, pull-down (immunoprecipitation), biotinylated ePDZ's and streptavidin (SA)-magnetic beads were used. The input (I), unbound (U), wash (W) and bound (B) fractions were separated with SDS-PAGE and detected with CBB. Note that this is not Western blotting, which would have given higher sensitivity and specificity. […] Note that most of nonspecific binding is due to the SA-magnetic beads (lane 13). […] It is noted that the relatively low recovery of the target in the pull-down assays may be due to the fact that the off-rate was optimized for these clamps (FIG. C3).
These Kd values and dissociation rates compare favorably to those for monoclonal antibodies. The reduced dissociation rate of an affinity clamp improves its usefulness in immunochemical applications.

The target in the next experiment is T5, ARVCF (Homo sapiens, UniProt O00192).
T5 construct: host or cells: mammalian cell lysate
T5 sequence (O00192 1-962): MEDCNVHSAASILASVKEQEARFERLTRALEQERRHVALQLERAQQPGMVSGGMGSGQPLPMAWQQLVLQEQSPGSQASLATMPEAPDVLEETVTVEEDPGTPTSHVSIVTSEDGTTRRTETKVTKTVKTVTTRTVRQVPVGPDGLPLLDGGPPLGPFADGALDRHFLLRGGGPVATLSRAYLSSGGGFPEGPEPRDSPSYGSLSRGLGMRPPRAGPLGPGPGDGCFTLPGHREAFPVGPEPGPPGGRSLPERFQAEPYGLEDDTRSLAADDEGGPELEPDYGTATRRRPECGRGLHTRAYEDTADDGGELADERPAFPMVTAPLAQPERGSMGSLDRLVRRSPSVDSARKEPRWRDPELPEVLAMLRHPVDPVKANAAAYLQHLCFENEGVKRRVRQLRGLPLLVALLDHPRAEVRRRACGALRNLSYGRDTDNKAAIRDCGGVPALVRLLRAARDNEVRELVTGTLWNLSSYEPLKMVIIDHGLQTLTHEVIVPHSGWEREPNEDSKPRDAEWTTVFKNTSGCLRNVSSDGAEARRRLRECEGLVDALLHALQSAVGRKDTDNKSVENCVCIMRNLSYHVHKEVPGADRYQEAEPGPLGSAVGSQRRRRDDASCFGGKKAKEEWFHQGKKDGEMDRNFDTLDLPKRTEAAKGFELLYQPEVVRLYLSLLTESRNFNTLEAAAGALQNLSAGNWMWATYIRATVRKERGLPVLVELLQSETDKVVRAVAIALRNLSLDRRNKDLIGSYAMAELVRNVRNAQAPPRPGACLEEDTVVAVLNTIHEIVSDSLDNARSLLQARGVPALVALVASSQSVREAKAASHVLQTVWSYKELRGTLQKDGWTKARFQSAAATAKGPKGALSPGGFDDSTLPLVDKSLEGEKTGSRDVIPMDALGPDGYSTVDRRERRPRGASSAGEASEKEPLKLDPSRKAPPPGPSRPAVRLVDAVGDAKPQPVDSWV
Kind of experiment: Western blotting of ARVCF in mammalian cell lysate. Type of experiment: binding. Conditions: vs commercial monoclonal antibody. Background: Immunoblotting shows a protein as a band on a membrane.

Experiment [5] has as its system SUMO-ARVCF fusion protein. Kind of experiment: Western blotting of SUMO-ARVCF fusion protein in E. coli lysate. Type of experiment: binding. Conditions: E. coli lysate containing 5 nanograms SUMO-ARVCF.
Excerpt: as §2

Another experiment has as its target T6, ARVCF peptide (Homo sapiens, UniProt O00192).
T6 construct: made in house; host or cells: E. coli
Put plainly: IC50 for the ARVCF peptide (Table 4). Type of experiment: binding.

Where [6] appears, read: Table 4, read-out: Kd [nM] δ-catenin.
Where [7] appears, read: Table 4, SPR, read-out: Kd [nM] ARVCF.
Setting [8] is: Table 2, SPR, read-out: Kd, ARVCF PQPVDSWV

Chain of Pin1 WW domain (Q13526 5-39 limits assumed): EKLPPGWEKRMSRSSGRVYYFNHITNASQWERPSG

As for LYRpSPS [Cdc25c-S214], the Kd in the experiment with Pin1 WW domain is 72 µM.
As to PPApTPP [Myt1-T412], on Pin1 WW domain, the Kd was 15 µM.
For PSpYVNVQN [SHC (control)], the Kd with Grb2-SH2 domain is 0.018 µM.
For SPQPEpYVNQPDVR [ErbB2 pY1139], the Kd at Grb2-SH2 domain was 0.076 µM.
For STSpTPR [Myt1-T455], the Kd with Pin1 WW domain was 40 µM.
Consider VNATpYVNVKCVA [c-MET pY1356], for which the Kd with Grb2-SH2 domain was 0.2 to 1 µM.
Take VPRpTPV [Cdc25c-T48]: in the experiment with Pin1 WW domain, the Kd is 8 µM.
Take YSPTpSPS [Polll-CTD-S5]: the Kd with Pin1 WW domain was 34 µM.
Turning to “ePDZ-b1: second-generation affinity-matured variant of ePDZ-b, SEQ ID NO: 151 (HYNYHYYS)”, the “reduction in affinity on Ala substitution at position −4” value in experiment [1] is listed as “over 200 fold”. Further, the Kd in experiment [2] (setting [6]) is greater than 10000 nM; in [3] (setting [7]), 5 nM. In addition, the “Specificity Index” value in experiment [2] is greater than 2000. Moreover, in experiment [3] (SPR), the koff is on record as <3.7 × 10^−4 S^−1. Further, the kon in experiment [3] (SPR) is recorded as 7.3 × 10^4 M^−1S^−1. For the same molecule, the “Affinity Enhancement” value in experiment [3] came to 4960.
On to “ePDZ-b2: second-generation affinity-matured variant of ePDZ-b, SEQ ID NO: 143 (SYYGVS)”, for which the “capture of target in pull-down (immunoprecipitation)” value in experiment [4] is “captured a target peptide from E. coli lysate in a highly specific and quantitative manner”. The Kd in experiment [2] (setting [6]) is greater than 10000 nM. The “Specificity Index” value in [2] is greater than 2500. The “performance in Western blotting” value in the experiment with ARVCF was “superior to that of a commercially available monoclonal antibody”. Besides, the Kd in experiment [3] (setting [7]) was 4 nM. In experiment [3] (SPR), the koff is listed as <2.9 × 10^−4 S^−1 and the kon is 7.0 × 10^4 M^−1S^−1. In experiment [3], the “Affinity Enhancement” value came to 6200.
“wt-PDZ: wild-type PDZ domain of Erbin (SEQ ID NO: 146) (YYDSHVS) [reference compound]”: the “discrimination between ARVCF peptide and δ-catenin peptide” value in [2] is on record as “almost equally”. The “detection of target in Western blotting” value in [5] is reported as “did not”. Also, the “dissociation rate (in words)” value in experiment [3] (SPR) is on record as “too fast to measure”. Moreover, in experiment [3] (setting [8]), the Kd was roughly 10000 nM.

B1: circularly permutated PDZ domain: erbin PDZ with original termini joined by Asn-Gly linker, new termini between residues 20 and 21 (protein)
chain: PELGFSISGGVGGRGNPFRPDDDGIFVTRVQPEGPASKLLQPGDKIIQANGYSFINIEHGQAVSLLKTFQNTVELIIVREVGNGAKQEIRVRVEKD
Consider B1, for which the Kd in experiment [3] (SPR equilibrium mode, target peptide fused to yeast SUMO, read-out: dissociation constant (Kd), ARVCF peptide) came out at 11000 ± 700 nM.

B2: ePDZ-b: affinity clamp: circularly permutated erbin PDZ fused to engineered FN3, SEQ ID NO: 150, selected for ARVCF peptide (protein)
chain: MKHHHHHHHHHHSSDYKDDDDKGENLYFQGSPELGFSISGGVGGRGNPFRPDDDGIFVTRVQPEGPASKLLQPGDKIIQANGYSFINIEHGQAVSLLKTFQNTVELIIVREVGNGAKQEIRVRVEKDGGSGGVSSVPTNLEVVAATPTSLLISWDAYYDSHVSYYRITYGETGGNSPVQEFTVPGSKSTATISGLKPGVDYTITVYAHYNYHYYSSPISINYRT
As for B2, in experiment [2], the “discrimination between ARVCF peptide and δ-catenin peptide” value is roughly 200 fold. For the same molecule, the Kd is greater than 10000 nM in experiment [2] (Table 2, read-out: Kd, δ-catenin PASPDSWV); greater than 10000 nM in [2] (setting [6]); 56 nM in experiment [3] (setting [8]); 56 nM in experiment [3] (setting [7]). Further, the “Specificity Index” value in experiment [2] is recorded as greater than 178. The same molecule showed an IC50 with ARVCF peptide of 0.059 µM. For the same molecule, the “detection of target in Western blotting” value in experiment [5] is reported as “detected the target”. Besides, the koff in experiment [3] (SPR) is 1.1 × 10^−2 S^−1. For the same molecule, the kon in experiment [3] (SPR) is given as 1.9 × 10^5 M^−1S^−1. Further, the “Affinity Enhancement” value in [3] worked out at 520.
